Laboratory results taken from the RNAGym collection of RNA variant scans (doi:10.7554/elife.80360).

B1: CPEB3 Ribozyme (parent)
chain: GGGGGCCACAGCAGAAGCGUUCACGUCGCGGCCCCUGUCAGAUUCUGGUGAAUCUGCGAAUUCUGCUGU

Variants of: B1
Experiment: self-cleavage, relative activity (ratio to wild type); higher = more cleavage; co-transcriptional

Variant	self-cleavage
C9A C34G	0.995
A8U A52C	0.975
C9A C12A	0.806
C9A A59U	0.897
A8U G50U	1.01
C7U C18G	0.104
A8G C27G	0.0649
A8G C33G	0.488
C9A U62C	0.931
C9A U62G	0.943
A8C U44G	0.927
C7U C57G	0.155
A8C U20G	0.141
C9A U44G	1.01
C9A A40G	1
A8U A10G	0.937
A8U A10C	1.03
C9A U26G	0.983
C7U G68U	0.965
A8G C35U	0.808
C9A A15U	0.886
C9A A15C	0.931
C9A C63A	0.953
C9A C63G	0.806

Variant	self-cleavage
A8C C45G	0.984
C7U G56A	0.916
A8G U64G	0.304
A8G C57U	0.303
A8U C57U	0.361
A8U C57A	0.299
A8U C66A	0.857
A8U C66U	0.993
A8U G19C	0.146
A8U G19U	0.483
A8U U67A	1.03
A8U U67C	1
C9A U46G	1.04
A8G U53C	0.31
A8G U53A	0.591
A8C G25U	0.177
A8U C18U	0.928
A8C G37C	0.239
A8C U43C	0.95
A8C U43A	0.971
A8C U43G	0.938
A8U G25U	0.0965
A8C G50U	1.03
A8C G50C	0.98

Variant	self-cleavage
A8C G50A	1.02
C9A U36A	0.315
C7U U61G	0.714
C7G U69A	0.728
A8C U64A	0.947
A8U A42G	0.943
C9A U49A	1.03
C9A U49G	1.04
A8G G48C	0.954
C9A G56U	0.98
C9A G56C	0.921
A8C A42C	0.992
A8C C29U	0.81
A8C C29G	0.0981
C7U U46A	0.985
C7U U46G	0.934
C9A G25C	0.228
C7U C34G	0.287
C7U C34U	0.969
C9A A42U	0.997
C9A A42G	0.997
C9A A23C	1.01
A8U G37C	0.169
C7G G30C	1.01

Variant	self-cleavage
C7G G30A	0.791
C7G G68C	0.815
A8U G65A	0.901
A8G A60C	0.143
A8G U20A	0.0589
A8G U44A	0.607
A8G U44G	0.651
C7U G58U	0.983
A8U G48U	1.03
C9A U55C	0.982
C9A U55G	0.874
C9A U53G	1
A8U C39U	0.986
A8C G14U	0.723
A8C C35A	0.374
A8U U36G	0.163
A8G U55A	0.269
A8G C45G	0.801
C7U C22U	0.155
C7G G28C	0.106
C9A G58C	1.04
C9A G58U	1.04
A8C G28A	0.215
C7U U26A	0.597

Variant	self-cleavage
C7U U26G	0.762
C7U A60C	0.231
C9A C66U	1.02
A8U U43G	0.913
C7G G37A	0.153
C7G G37C	0.118
C7G G37U	0.179
A8C U21A	0.972
A8C U21G	0.501
A8U A51C	0.974
C9A G31A	1
C9A G31C	0.291
C9A G31U	0.961
A8U A40G	0.97
C7U A42G	0.908
C9A G48A	1.01
C7G U62A	0.18
C7U C63G	0.603
A8G C32G	0.517
A8G C32U	0.877
A8C C12A	0.637
C7U C54G	0.766
C9A G28A	0.265
C7U A13U	0.693

Variant	self-cleavage
A8G G31C	0.0995
C9A G41U	0.955
A8U U53G	0.891
A8U U53A	0.913
A8G A23C	0.751
A8G U43C	0.758
C7G U21G	0.119
C7G U21A	0.395
A8C A59C	0.725
A8U A13U	0.805
C7U C29U	0.505
C7U C29A	0.413
C7U C29G	0.314
C9A G17C	0.204
C7G U67G	0.75
A8U U69G	1.06
C7U U55C	0.744
C7U U55G	0.706
C7G U36A	0.0233
C9A G50A	1.02
C9A G50C	1.03
C9A G50U	0.999
C7U C12G	0.822
C7U C12U	0.94

Variant	self-cleavage
C7U C24U	0.676
C7U C24G	0.225
A8G A10C	0.666
A8G A10G	0.122
C9A A13C	0.965
C7U G11C	0.663
C7U G11A	0.816
A8U U55A	0.967
A8C U69C	1.07
A8C G48A	1
A8C A52U	0.962
C7U C66U	0.982
C7U C66A	0.8
C7U U44A	0.881
C7U U44G	0.914
A8U U44A	0.97
A8G U61A	0.379
C7U G48C	0.949
A8G U36C	0.593
A8G U36G	0.135
C7U G41C	0.647
C9G	1.01
C9A	1.03
